This series has as its target rA3GR8/E259A (Macaca mulatta (rhesus macaque), UniProt M1GSK9 1-138+=AEAG+147-383, E259A;internal_change). As to the kind of experiment: EMSA. In general terms: A gel shift assay detects complexes by their altered migration in electrophoresis.

B1: AA-DNA 10 nt (ssDNA)
DNA: TTTTAATTTT
Consider B1, for which the Kd (as a rule, the concentration at which binding is half-saturated) was determined as 318 ± 64 nM.

B2: GA-DNA 10 nt (ssDNA)
DNA: TTTTGATTTT
B2 displayed a Kd of 473 ± 95 nM.

The values above are taken from PMC11467180.
